Measurements reported in US20220163515, “PUMILIO DOMAIN-BASED MODULAR PROTEIN ARCHITECTURE FOR RNA BINDING” (Massachusetts Institute of Technology, published 2022).

How the values were obtained:
[1] = molecular target: T1, PumHD wild-type (Pumilio homology domain) (Homo sapiens, UniProt Q14671 Q14671:828-1176); experiment: FP; 25 mM Tris-HCl pH 7.5, 0.5 mM EDTA, 50 mM KCl, 0.1 mg/mL BSA; active-fraction corrected; settings: tags: 6xHis (pBadHisB vector); label: 5'-FAM
Experimental: (§1) Methods Enzymol 469:287-302; Heyduk T, Ma Y, Tang H, Ebright R H (1996) Fluorescence anisotropy: rapid, quantitative assay for protein-DNA and protein-protein interaction. Methods Enzymol 274:492-503; Dinman J (2013) Biophysical approaches to translational control of gene expression. 317].
(§2) The cognate and non-cognate RNA targets for the purified Pum variant proteins were synthesized with 5′-labeled FAM, 6-carboxyfluorescein (IDT). […] 50 nM cognate RNA was mixed with increasing concentration of the protein (measured by NanoDrop, Thermo Scientific) in the binding buffer (25 mM Tris-HCl pH 7.5, 0.5 mM EDTA, 50 mM KCl, 0.1 mg/mL BSA). The 100 μL samples were assayed, in duplicates, for fluorescence anisotropy using a Cary Eclipse fluorimeter (Varian) with Manual Polarizer Accessory (Varian). […] Fluorescence anisotropy was calculated as a unitless ratio defined as R═(I₌−I_{⊥})/(I₌+2I_{⊥}), where I is the emission intensity parallel (I₌) or perpendicular (I_{⊥}) to the direction of polarization of the excitation source. […] The Kd of each protein to its cognate and non-cognate RNA was subsequently measured, using the protein concentration corrected to the active protein fraction, with constant concentration of RNA. The Kd was calculated from a non-linear fit in IgorPro 6.22 of the anisotropy vs. protein concentration plot to the equation [Qu X, Chaires J B (2000) Analysis of drug-DNA binding data.

[2] = molecular target: T1, PumHD wild-type (Pumilio homology …); experiment: FP; no detectable binding, fit did not converge; settings: tags: 6xHis (pBadHisB vector); label: 5'-FAM
Experimental: as §1, §2

T1 sequence (Q14671 828-1176, one chain of several): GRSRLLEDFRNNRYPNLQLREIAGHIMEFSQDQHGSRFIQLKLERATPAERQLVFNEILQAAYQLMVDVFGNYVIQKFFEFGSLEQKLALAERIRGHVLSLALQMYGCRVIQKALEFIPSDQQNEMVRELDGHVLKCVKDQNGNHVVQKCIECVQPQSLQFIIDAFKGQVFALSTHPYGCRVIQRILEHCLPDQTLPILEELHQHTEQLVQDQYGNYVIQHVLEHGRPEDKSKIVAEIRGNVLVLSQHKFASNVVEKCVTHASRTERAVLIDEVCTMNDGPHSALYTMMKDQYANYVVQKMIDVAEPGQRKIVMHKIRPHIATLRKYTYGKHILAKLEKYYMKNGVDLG

B1: wild-type NRE cognate (ssRNA)
RNA: CCAGAAUUGUAUAUAUUCG
[1]
  Kd: 0.088 nM

B2: wild-type noncognate (ssRNA)
RNA: ACAUAUAU
[2]
  binding result: no binding
